The results in this text go back to patent US8697651B2, “Amyloid β fibrillogenesis-inhibiting peptide” (Kagoshima University, priority 2006, dated 2014).

One assay deals with T1, Aβ1-42 peptide (Homo sapiens, UniProt P05067).
T1 construct: the Aβ1-42 peptide diluted to 40 μM using 20 mM phosphate buffer
Nature of the assay: Experiment of inhibition of amyloid β (Aβ1-42) fibrillogenesis, thioflavine T fluorescence. Type of assay: biochemical. As to conditions: peptide 1.65, 16.5, 33 nM added to 40 μM Aβ1-42 in 20 mM phosphate buffer pH 7.0; 0, 6, 24 hours; thioflavine T fluorescence 482 nm (FIG. 8). The protocol:
Examples of a method for examining whether or not the obtained peptide has an activity of inhibiting amyloid β fibrillogenesis include the thioflavine T (ThT) method (H. Levine, III, Protein Science […]: 404-410 (1993)).
The synthesized peptide (TAT-B6-L1, B6-L1-TAT, TAT-B7-C15, or TAT-B7-S15) was added at varying concentrations (1.65 nM, 16.5 nM, and 33 nM) to the Aβ1-42 peptide diluted to 40 μM using 20 mM phosphate buffer, pH 7.0. At 0, 6, and 24 hours later, 10 μl of a sample was collected. After addition of 90 μl of 11 μM thioflavine T (Sigma)/phosphate buffer, fluorescence intensity at 482 nm generated by excitation light at 450 nm was measured using a multilabel plate counter Wallac 1420 ARVO sx (Perkin-Elmer; Wellesley, Mass.).
Results of measuring an activity of inhibiting Aβ1-42 fibrillogenesis by fusion peptides of TAT and B6-L1, B7-C15, or B7-S15 are shown in FIG. 8. The experiment of inhibition of fibrillogenesis was conducted according to the procedures described in the experiment of inhibition of fibrillogenesis above.

The next assay concerns B6 scFv. Put plainly: ELISA: binding of B6 scFv to plate-coated synthesized TAT fusion peptide. The following applies: peptide coated 200 ng/well; B6 scFv at varying concentrations (FIG. 7). More on the design: species or system human. An excerpt: The B6-L1, B7-C15, and B7-S15 sequences having the TAT sequence fused at the amino terminus are referred to as TAT-B6-L1, TAT-B7-C15, and TAT-B7-S15, respectively. The B6-L1 sequence having the TAT sequence fused at the carboxyl terminus is referred to as B6-L1-TAT. The TAT sequence is a peptide sequence having the function of passing through the blood-brain barrier (P. Jarver and Ulo Langel, The use of cell-penetrating peptides as a tool for gene regulation, DDT, 9: 395-402, 2004). These peptides were biotinylated at their amino termini. Binding of the peptides was quantified using avidin labeled with an enzyme.
(5) The fusion peptide of TAT and B6-L1 was recognized by B6 scFv (FIG. 7). An ELISA plate was coated with the synthesized peptide TAT-B6-L1 or B6-L1-TAT under conditions of 200 ng/well. After addition of B6 scFv at varying concentrations, its binding activity was studied. A control peptide used was an unrelated peptide (GSGGGSCGYWRSEWGLCG (SEQ ID NO: 34)). […] (6) Activity of Inhibiting Aβ1-42 Fibrillogenesis by Fusion Peptide of TAT and B6-L1, B7-C15, or B7-S15

For assay [1], the target named is T2, Aβ oligomer or Aβ fibers (Aβ1-42) (Homo sapiens, UniProt P05067).
T2 construct: the Aβ1-42 peptide diluted to 40 μM using 20 mM phosphate buffer
Put plainly: Experiment of precipitation of Aβ conformers (Aβ oligomer and Aβ fibers) by biotinylated peptide with streptavidin-magnet beads, Western blot. The format is binding. The following applies: Aβ1-42 40 μM, 1.5 hours after dissolution, peptide 1:1, supernatant vs pellet (FIG. 9). Here is the method:
Aβ1-42 was dissolved at a concentration of 40 μM in 20 mM phosphate buffer, pH 7.0. At 1.5 hours later, the solution was reacted at 37° C. for 1 hour by the addition of the TAT-B6-L1 or TAT-B7-C15 peptide adjusted to 40 μM at a ratio of 1:1 by liquid volume (final concentration: Aβ [20 μM]/synthesized peptide [20 μM]). After reaction, an aliquot thereof was sampled as a sample before immunoprecipitation (“Before precipitation”), and the remaining sample was reacted with M-280 streptavidin-magnet beads (Dynal Biotech, Oslo, Norway) adjusted to 20 μg/μl on ice for 1 hour at a ratio of 1:1 by liquid volume (final concentration: Aβ [10 μM]/synthesized peptide [10 μM]/beads [10 μg/μl]). After reaction, the beads were precipitated using a magnet to obtain “Supernatant”. To the precipitated beads, PBS was added in a liquid volume equal to the collected supernatant to obtain “Pellet”. Each obtained sample was electrophoresed and subjected to Western blot analysis using anti-Aβ antibodies.
Aβ1-42 was dissolved at a concentration of 40 μM in 20 mM phosphate buffer, pH 7.0. At 1.5 hours later, the biotinylated TAT-B6-L1 or TAT-B7-C15 peptide was added thereto, and the conjugates were precipitated using streptavidin-magnet beads. Bands derived from Aβ oligomer, Aβ fibers, etc., could be confirmed before precipitation. Aβ oligomer or Aβ fibers were not confirmed in the supernatant from precipitation using the TAT-B6-L1 or TAT-B7-C15 peptide but could be confirmed in the pellet.
For orientation: In western blotting, separated proteins are transferred to a membrane and probed.

No end group written: not given here. *: point of attachment. Biotin = O=C1N[C@H]2[C@H](CS[C@H]2CCCCC(=O)*)N1

T1 sequence (P05067 672-713 limits assumed): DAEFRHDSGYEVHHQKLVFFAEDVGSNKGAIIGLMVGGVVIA
T2 sequence (P05067 672-713 limits assumed): as above
Sequence of B6 scFv (as listed by the source): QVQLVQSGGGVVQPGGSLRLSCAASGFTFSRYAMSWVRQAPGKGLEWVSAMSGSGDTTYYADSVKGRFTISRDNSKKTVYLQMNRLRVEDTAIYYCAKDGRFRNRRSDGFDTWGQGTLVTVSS
Sequence of B6 scFv (as listed by the source): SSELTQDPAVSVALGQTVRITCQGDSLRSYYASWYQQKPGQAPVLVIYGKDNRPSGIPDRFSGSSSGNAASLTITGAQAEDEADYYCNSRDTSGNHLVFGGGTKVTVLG

Turning to “B6-L1-TAT: B6-L1 sequence having the TAT sequence fused at the carboxyl terminus; SEQ ID NO: 25 (Biotin-GMLDIFAPIRHVYGRKKRRQRRR)”, the “activity of inhibiting Aβ1-42 fibrillogenesis” value with Aβ1-42 peptide is on record as “demonstrated to have the activity of inhibiting fibrillogenesis”. Further, in the assay with B6 scFv, the “binding of B6 scFv to the coated peptide” value is recorded as “Binding reaction dependent on the amount of B6 scFv was confirmed”.

On to “GSGGGSCGYWRSEWGLCG [control peptide, reference compound]”, for which the “activity of inhibiting Aβ1-42 fibrillogenesis” value with Aβ1-42 peptide is “exhibited no inhibiting activity”. The “binding/precipitation of Aβ oligomer or Aβ fibers by the peptide” value (shortened to “binding/precipitation”) in assay [1] is reported as “no confirmed precipitation reaction”.

Take “TAT-B6-L1: B6-L1 sequence having the TAT sequence fused at the amino terminus; SEQ ID NO: 24 (Biotin-YGRKKRRQRRRGMLDIFAPIRHV)”: the “activity of inhibiting Aβ1-42 fibrillogenesis” value in the assay with Aβ1-42 peptide is “demonstrated to have the activity of inhibiting fibrillogenesis”. Besides, the “binding/precipitation” value in assay [1] was “Aβ oligomer or Aβ fibers formed on 1.5 hours after dissolution of Aβ1-42 bind to the TAT-B6-L1 or TAT-B7-C15 peptide”. In addition, the “binding of B6 scFv to the coated peptide” value in the assay on B6 scFv is “Binding reaction dependent on the amount of B6 scFv was confirmed”.

Turning to “TAT-B7-C15: B7-C15 sequence (glycine added to carboxyl terminus) having the TAT sequence fused at the amino terminus; SEQ ID NO: 26 (Biotin-YGRKKRRQRRRCYGTKPWMCG; cysteine pairing not given here)”, the “activity of inhibiting Aβ1-42 fibrillogenesis” value in the assay with Aβ1-42 peptide was “demonstrated to have the activity of inhibiting fibrillogenesis”. Moreover, the “binding/precipitation” value in assay [1] is reported as “Aβ oligomer or Aβ fibers formed on 1.5 hours after dissolution of Aβ1-42 bind to the TAT-B6-L1 or TAT-B7-C15 peptide”.

With “TAT-B7-S15: B7-S15 sequence having the TAT sequence fused at the amino terminus; SEQ ID NO: 27 (Biotin-YGRKKRRQRRRSYGTKPWMSG)”, the “activity of inhibiting Aβ1-42 fibrillogenesis” value with Aβ1-42 peptide is given as “demonstrated to have the activity of inhibiting fibrillogenesis”.
